Results on six substances are retold here after patent publication US9696316B2, “Conformationally dynamic peptides” (SYSTEM OF SYSTEMS ANALYTICS, INC., priority 2009, dated 2017).

In one data set the target is Aβ oligomer (Homo sapiens, UniProt P05067). In words: Aβ oligomer assay with FRET-labeled probes. The format is binding. The note with it: FAM/EDANS labeled, water (FIG. 10 bottom panel B: increased β-sheet, FRET signal). From the text: Alternatively, as illustrated in bottom panel B of FIG. 10, a peptide probe can be labeled at each terminus with members of a FRET pair (e.g. FAM and EDANS).

For data set [1], the target named is biotinylated Aβ42 oligomers (Homo sapiens, UniProt P05067). In words: In vitro affinity chromatography-based interaction assay (streptavidin beads). The note with it: 4 μM probe. The data set is classed as binding. The method, then: In this assay, soluble peptide probes are combined with, for example, soluble target protein oligomers in an in vitro affinity chromatography-based interaction assay. For this example, target protein is labeled with an affinity molecule, such as biotin, and incubated with a labeled peptide probe. After incubation, the mixture is incubated with the capture moiety, such as streptavidin, on a support, for example a column or beads, such that the target protein is captured. After washing of unbound material, the support can be examined for detection of the labeled peptide probe, which would indicate the presence of bound target protein-peptide probe complexes on the support. Alternatively, the bound material may be eluted and then examined for detection of the labeled peptide probe. Again, detection of the labeled peptide probe would indicate the presence of target protein-peptide probe complexes in the eluant. FIGS. 5A and 15A illustrate an affinity chromatography assay using biotin-labeled target protein and streptavidin-coated beads. This type of assay is useful, for example, for assessing the efficacy of a given peptide probe. […] The beads are washed with PBS to remove unbound material and the captured material is analyzed by SDS-PAGE. […] […]

The target of a further data set is Aβ fibers (Homo sapiens, UniProt P05067). Description: Aβ fiber assay in 40% TFE. The data set is classed as binding. The note with it: di-pyrene labeled. The text has this:
An Aβ fiber assay may be conducted in an organic solvent, such as 40% TFE. […] This conformation is associated with the monomer or self fluorescence of the pyrene moieties (370-410 nm; see FIG. 6). […] This conformation is associated with the excimer fluorescence of the pyrene moieties (430-530 nm; see FIG. 6).

The next data set concerns the target Aβ42 Fiber (Homo sapiens, UniProt P05067). Description: In vitro centrifugation-based interaction assay (insoluble complexes). The format is binding. The note with it: 40% TFE, 3 hours incubation, 17,000×g 30 minutes. The method, then:
In this assay, soluble peptide probes are combined with insoluble target protein fibers in an in vitro centrifugation-based interaction assay. Peptide probe that binds to the target protein will be detected in an insoluble pellet, which may be isolated using centrifugation. […] Aβ42 Fiber (target protein) and peptide probe (SEQ ID NO:1) are incubated for 3 hours in the presence of increasing amounts of trifluoroethanol (TFE). The samples are centrifuged at 17,000×g for 30 minutes, and the pellets are denatured in sample buffer and analyzed by SDS-PAGE. Reference samples (Input) are shown for comparison.

Data set [2] in a line: CD analysis of peptide probe conformation under different pH and salt conditions. The data set is classed as physicochemical. The method, then: As discussed in Example 2, histidine and glutamic acid residue substitutions were introduced into Peptides 22, 38 and 45 (SEQ ID NOs: 2-4) so as to permit the formation salt bridges between those residues. CD analysis can be performed on such peptides under different pH and salt conditions to determine the conformation of the peptide under given conditions.
Peptide 38 (SEQ ID NO:3) labeled at each terminus with a pyrene moiety is used in this example. […] The addition of 500 mM NaCl greatly diminishes the alpha helix conformation in favor of a β-sheet conformation, at both pH levels. Thus, at pH 7, in the presence of 500 mM NaCl (large dashed line), the alpha helix content is 4%, while the fβ-sheet content is 40% (up from 10% without the salt). At pH 4, in the presence of 500 mM NaCl (dashed/dot line), the alpha helix content is 6%, while the β-sheet content is 52% (up from 4% without the salt). […] At greater salt concentrations, the salt bridge is destroyed, and the α helical conformation is no longer stabilized.

In data set [3] the target is T1, Aβ42 oligomer (Homo sapiens, UniProt P05067). Description: CD analysis of peptide probe with target protein. The data set is classed as binding. From the text:
The conformation of the peptide probe bound to the target protein can be assessed by CD analysis. […] The peptide alone is highly alpha helical (36%). Upon mixing of Peptide 38 with the target protein, the peptide undergoes a conformation shift that results in increased β-sheet conformation, and decreased α helix conformation. That is, the secondary structure of Peptide 38 is altered such that the proportion of a helix is halved (18%), while the proportion of β-sheet structure is enhanced from 20% to 31%. […] Circular dichroism (CD) analysis is used to determine the secondary structure of Peptide 22, synthetic Aβ42 oligomer, and a mixture thereof. Samples are incubated in 10 mM sodium phosphate (pH 7.0) for 3 hours at room temperature before measuring CD. For each sample, the relative ellipticity is evaluated from 190-260 nm. […] Each data set represents the average of three separate spectral scans.

The target of data set [4] is T1, Aβ42 oligomer. In words: Aqueous Aβ oligomer assay, pyrene fluorescence. The format is binding. The text has this:
The conformation of peptide probe bound to the target protein can also be detected by measuring pyrene fluorescence, on the peptide alone and in combination with the target protein. […] The excimer fluorescence associated with the β-sheet conformation has a different wavelength than the monomer fluorescence associated with the alpha-helix conformation, and the excimer:monomer fluorescence ratio is 9:1. […] The addition of Aβ42 oligomer target protein results in a dose-dependent shift of the excimer:monomer fluorescence ratio to 20:1 at the highest Aβ42 oligomer concentration (0.3 μM). This change in excimer:monomer fluorescence ratio reflects a corresponding conformational change in the peptide, that results in increased β-sheet conformation, and decreased α helix conformation.
An Aβ oligomer assay may be conducted in an aqueous solvent, such as water. […] Upon introduction of Aβ oligomer, the fluorescence profile shifts to primarily self-fluorescence (monomeric) (see FIG. 11), which is associated with reduced β-sheet structure, or increased alpha helix structure.
As discussed above, Peptide 22 (SEQ ID NO: 2) undergoes a conformational change upon interaction with Aβ oligomer. FIG. 11 illustrates the fluorescence spectra for Peptide 22 labeled at each terminus with pyrene and incubated in aqueous conditions for several hours at room temperature in 10 mM Hepes (pH 7.0). […] (solid line=Time 0; dashed line=3 hours; dotted line=18 hours).
Peptide 22 (100 nM) is incubated in water for 15 hours at room temperature with equimolar concentrations ([…]) of several potential Aβ substrates: Aβ42 oligomer (type 1); Aβ42 oligomer (type 2); Aβ1-42 monomer; Aβ1-40 monomer; Aβ1-42 fiber; Aβ1-40 fiber; bovine serum albumin (control substrate); and carbonic anhydrase (control substrate).
With reference to FIG. 13A, Peptide 22 (70 nM) is incubated with […] synthetic Aβ42 oligomer at 25 C, and fluorescence emission spectra is recorded after 3 hours incubation. […] (solid line—no Aβ42 oligomer; dashed/dot line—30 nN Aβ42 oligomer; large dashed line—100 nN Aβ42 oligomer; small dashed line—300 nN Aβ42 oligomer)

The mark [5] stands for this setting: mixed with Aβ42 oligomer (FIG. 8).

Ends that are not written are not given here. * marks the point of attachment. EDANS = O=S(=O)(O)c1cccc2c(NCCN*)cccc12; FAM = 5(6)carboxyfluorescein

Chain of Aβ oligomer (P05067 672-713 limits assumed): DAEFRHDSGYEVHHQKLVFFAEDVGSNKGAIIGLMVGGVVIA
T1 sequence (P05067 672-713 limits assumed): as above
Chain of Aβ fibers (P05067 672-713 limits assumed): as above
Chain of biotinylated Aβ42 oligomers (P05067 672-713 limits assumed): as above
Chain of Aβ42 Fiber (P05067 672-713 limits assumed): as above

Take “(FAM)KLVFF AEDVG SNKBA IIELM E(EDANS) [AD293]”: the “FRET fluorescence behavior upon introduction of Aβ oligomer” value with Aβ oligomer is listed as “fluorescence behavior consistent with this type of conformation change”.
Regarding “(FAM)HHQ KLVFFAEDEGSRKHAIEGLMEGE(EDANS) ({FAM}-HHQKLVFFAEDEGSRKHAIEGLMEGE(EDANS); not fully specified (C-terminus)) [AD 291, P77, with FAM and EDANS and solubilizing E residue]”, in the data set with Aβ oligomer, the “FRET fluorescence behavior upon introduction of Aβ oligomer” value was “fluorescence behavior consistent with this type of conformation change”.
Turning to “KLVFFAEDVGSNKGAIIGLMK (KLVFFAEDVGSNKGAIIGLMK) [SEQ ID NO:1, Aβ protein residues 16-35, with added C-Terminal Lys]”, the “capture of labeled peptide probe with biotinylated Aβ42 oligomer on streptavidin beads (SDS-PAGE)” value in data set [1] is “labeled peptide probe is only detected in the captured material, in the presence of high molecular weight oligomers”. Also, in the data set with Aβ fibers, the “conformation in the absence of Aβ fibers (CD, data not shown)” value is “primarily alpha helical” and the “conformation upon introduction of an Aβ fiber substrate (pyrene excimer fluorescence)” value was “adopts a β-sheet conformation”. Moreover, the “binding of peptide probe to Aβ42 fiber (peptide band in pellet, SDS-PAGE)” value with Aβ42 Fiber is “binding of target protein and peptide probe is clearly observed”.
With “KLVFFAEDAAAAKHAIIELMK (KLVFFAEDAAAAKHAIIELMK) [Peptide 38, Salt bridge at G29H and G33E; Ala substitutions to increase alpha-helicity]”, the “alpha helix content (CD)” value in data set [2] (pH 4, 500 mM NaCl) came to 6%; in data set [2] (pH 4, no added salt), 52%; in data set [2] (pH 7, 500 mM NaCl), 4%; in data set [2] (pH 7, no added salt) it was 38%. The “β-sheet content (CD)” value is reported as 52% in data set [2] (pH 4, 500 mM NaCl); 4% in data set [2] (pH 4, without the salt); 40% in data set [2] (pH 7, 500 mM NaCl); 10% in data set [2] (pH 7, without the salt). The entries for the “proportion of alpha helix (CD)” value in the data set with Aβ42 oligomer [3] (setting [5]) and with Aβ42 oligomer [3] (peptide alone (FIG. 8)) were 18% and 36%, respectively. The “proportion of β-sheet structure (CD)” value with Aβ42 oligomer [3] (setting [5]) was found to be 31%; in the data set with Aβ42 oligomer [3] (peptide alone (FIG. 8)) it was 20%. Besides, in the data set with Aβ42 oligomer [4] (aqueous assay), the “reactivity with Aβ42 oligomers (transition from pyrene excimer fluorescence to pyrene self-fluorescence)” value is reported as “react with Aβ42 oligomers”. For the same substance, the “preferential binding by state of self-aggregation of Aβ protein” value with Aβ42 oligomer [4] (versus monomers, fibers and control proteins) is recorded as “preferentially binds to Aβ protein in the form of soluble Aβ oligomers”.
Regarding “(FAM)EAA KLVFFAEDEGSRKHAIEGLMEGE(EDANS) ({FAM}-EAAKLVFFAEDEGSRKHAIEGLMEGE(EDANS); not fully specified (C-terminus)) [AD 290, P59, with FAM and EDANS, additional Ala, and solubilizing E residue]”, the “FRET fluorescence behavior upon introduction of Aβ oligomer” value in the data set with Aβ oligomer was “fluorescence behavior consistent with this type of conformation change”.
Consider “(FAM)EFR HDSGYEVHHQKLVFFAEDVGSNKGAIIGLME(EDANS) (EFRHDSGYEVHHQKLVFFAEDVGSNKGAIIGLME; not fully specified; FAM and EDANS labels) [AD292, Aβ residues 3-35, with FAM and EDANS and solubilizing E residue]”, for which the “FRET fluorescence behavior upon introduction of Aβ oligomer” value with Aβ oligomer is “fluorescence behavior consistent with this type of conformation change”.
